Experimental data from US7964598B2 (The J. David Gladstone Institutes, priority 1995, dated 2011).

Tested on: apoE4-expressing Neuro-2a cells
Test: Neurite outgrowth, apoE4-expressing Neuro-2a cells
Format: cell-based, mouse
Settings: in the presence of β-VLDL
Procedure: Cells were grown in DME/F12 containing 10% FBS and G418 (400 μg/ml). On the day the experiment was initiated, the cells were subcultured into 35 mm plates in DME/F12 with 10% FBS. The cells were allowed to adhere to the plastic plates for 2 hr at 37° C., and then the culture medium was changed to N2 medium with or without increasing concentrations of lipoproteins. After 48 hr at 37° C., the media were replaced with the same medium (with or without lipoproteins), and the incubation was continued for an additional 48 hr. […] Neurons were imaged in fluorescence mode with a confocal laser scanning system (MRC-600, BioRad, Hercules, Calif.), and the images were digitized with an Image-1/AT image analysis system (Universal Images, West Chester, Pa.). The neuronal images were coded before characterization, and the following variables were measured: 1) number of neurites (defined as cell surface projections at least one-half the cell diameter) on each neuron; 2) neurite branching (the number of branch points on each neurite); and 3) neurite extension (the length of the longest neurite, measured from the cell body). Typically, in each experiment the neurites of 20 to 40 neurons per plate were measured and the results preserved as the mean±S.E.M. […]

B1: lactoferrin: blocks binding of lipoproteins to both HSPG and LRP (protein, UniProt P02788 20-710, looked up)
Lactotransferrin: GRRRSVQWCAVSQPEATKCFQWQRNMRKVRGPPVSCIKRDSPIQCIQAIAENRADAVTLDGGFIYEAGLAPYKLRPVAAEVYGTERQPRTHYYAVAVVKKGGSFQLNELQGLKSCHTGLRRTAGWNVPIGTLRPFLNWTGPPEPIEAAVARFFSASCVPGADKGQFPNLCRLCAGTGENKCAFSSQEPYFSYSGAFKCLRDGAGDVAFIRESTVFEDLSDEAERDEYELLCPDNTRKPVDKFKDCHLARVPSHAVVARSVNGKEDAIWNLLRQAQEKFGKDKSPKFQLFGSPSGQKDLLFKDSAIGFSRVPPRIDSGLYLGSGYFTAIQNLRKSEEEVAARRARVVWCAVGEQELRKCNQWSGLSEGSVTCSSASTTEDCIALVLKGEADAMSLDGGYVYTAGKCGLVPVLAENYKSQQSSDPDPNCVDRPVEGYLAVAVVRRSDTSLTWNSVKGKKSCHTAVDRTAGWNIPMGLLFNQTGSCKFDEYFSQSCAPGSDPRSNLCALCIGDEQGENKCVPNSNERYYGYTGAFRCLAENAGDVAFVKDVTVLQNTDGNNNEAWAKDLKLADFALLCLDGKRKPVTEARSCHLAMAPNHAVVSRMDKVERLKQVLLHQQAKFGRNGSDCPDKFCLFQSETKNLLFNDNTECLARLHGKTTYEKYLGPQYVAGITNLKKCSTSPLLEACEFLRK
With B1 the “inhibition of neurite extension seen in the apoE4-expressing cells” value was “blocked the effects of apoE3 and apoE4 on neurite outgrowth”.
